According to US5929223:

Target: T1, dCREB2-a (Drosophila melanogaster) (UniProt Q9VWW0)
T1 sequence: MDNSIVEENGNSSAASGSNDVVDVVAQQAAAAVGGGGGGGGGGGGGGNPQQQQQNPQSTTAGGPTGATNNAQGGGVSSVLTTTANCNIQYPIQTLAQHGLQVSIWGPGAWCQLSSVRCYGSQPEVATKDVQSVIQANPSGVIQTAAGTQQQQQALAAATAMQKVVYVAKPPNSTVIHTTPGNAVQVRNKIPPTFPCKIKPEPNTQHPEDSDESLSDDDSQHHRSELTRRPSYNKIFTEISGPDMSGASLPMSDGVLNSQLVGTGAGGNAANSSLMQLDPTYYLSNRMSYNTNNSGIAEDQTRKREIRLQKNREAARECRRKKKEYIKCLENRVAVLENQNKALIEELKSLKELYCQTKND
Assay: cell_activity
Details: F9 cells, with PKA, relative to PKA alone

Substance: D(-71) CAT somatostatin promoter CRE fragment
- activity: 5.4 fold
